Test results reported in patent publication US20170210810A1, “BIOMARKER PROFILES FOR PREDICTING OUTCOMES OF CANCER THERAPY WITH ERBB3 INHIBITORS AND/OR CHEMOTHERAPIES” (Merrimack Pharmaceuticals, Inc., priority 2013, published 2017).

Columns and labels:
[1] = system: EGFR-wild-type non-small cell lung cancer (NSCLC)
Description: A group participating in the study was comprised of 132 patients with wild-type epidermal growth factor receptor (EGFR) who progressed on ≧1 platinum-based standard of care therapy and were EGFR tyrosine kinase inhibitor (TKI)-naïve. […] Data were collected at 10+ months.
BM+ patients were defined as having detectable HRG mRNA by RNA-ISH (RNA in situ hybridization) as described above in Example 1.

[2] = cited from earlier work
[3] = system: locally advanced or metastatic ER+ and/or PR+, HER2 negative breast cancer; assay: Randomized, double-blind phase 2 trial of exemestane +/- MM-121 in breast cancer (Example 6)
Description: This population is for safety analyses, as well as the primary population for all efficacy parameters.
Analyses were performed on the five pre-specified primary biomarkers, all mechanistically linked to ErbB3 signaling, as measured in FFPE archived tissue blocks. Biomarkers were assessed based on local HR scans. Thresholds for defining biomarker profile positive populations were chosen based on these scans and on results obtained in the above-described ovarian cancer trial. A single two-variable model was assessed using HRG and ErbB2, based on the findings from the above-described ovarian cancer trial. HRs in the biomarker profile positive and negative populations were calculated using a Cox proportional hazard model that included biomarker groups by treatment and stratification factors as additive factors. Only patients with non-missing biomarkers were used in each calculation.
Both assays were performed using FFPE archived tissue blocks.
Biomarker profile positive (BM+) and biomarker profile negative (BM−) subpopulations were defined by dichotomizing biomarker values for HRG and ErbB2. For HRG, a cut point of −5 (RT-PCR score) was chosen based on the local HR scan (value at which HR=1). […] Two separate analyses of ErbB2 levels are provided: (1) ErbB2 levels based on the qIHC assay; and (2) for patients where qIHC data are missing, but HCT results were available, ErbB2 levels were adapted from the reported HCT results, with a score of HCT 2+ being deemed equal to log10(ErbB2)=5.1.
All efficacy analyses for the BM subgroups were performed using a Cox proportional hazard model that included both of the pre-specified strata as additive effects in combination with the treatment effect. The ErbB2 low & HRG high BM+ subpopulation was defined as patients with log10(ErbB2)≦5.1 and HRG RT-PCR>−5.

[4] = system: advanced, platinum-resistant ovarian cancer; assay: Clinical trial in ovarian cancer: paclitaxel with or without MM-121 (Example 5); format: in vivo, human
Description: A clinical trial was performed that was designed to allow, inter alia, determination of associations between biomarker profiles and clinical responses. Biomarker data were measured in pre-treatment biopsies and (when available) in archived tumor samples. Results pertaining to predictive biomarkers measured in pre-treatment biopsies are described herein.
In total, six primary biomarkers were measured using 15 assays. For the 5 chromogenic assays (qIHC and RNA-ISH), two different overall scores were used: composite score and top-10 score. Accordingly, 20 different variables were assessed at this stage. A Cox proportional hazard model was used to rank the biomarkers. This method determines if PFS varies with biomarker values differently in the treatment arm relative to the control arm. A P-value cutoff of 0.4 was used to determine which biomarkers would be prioritized for subsequent bivariate analyses.
Based on these two thresholds, a biomarker profile positive (BM+) subpopulation is defined for subsequent analyses as: (ErbB2 levels≦log10 5.1) AND (HRG score≧1) (“ErbB2 low” AND “HRG positive”). Accordingly, a biomarker profile negative (BM−) subpopulation is defined as (ErbB2 levels >log10 5.1) OR (HRG score<1) This definition results in a BM+ prevalence of 34% in the clinical trial population.
In FIG. 8G (progression free survival at 10+ months) and FIG. 8H (overall survival at 10+ months), the treatment arm is represented by a blue line and the control arm is represented by a black line.

[5] = best overall response, BM+ (heregulin+) as worded in FIG. 11 legend
[6] = safety population, count (percentage)

Which “complete response (CR)” value [1, 5] does the source give for C#Cc1cccc(Nc2ncnc3cc(OCCOC)c(OCCOC)cc23)c1 [erlotinib] here?
The value was “none”.

And the “partial response (PR)” value [1, 5]?
The value was 6.7%.

And the “progressive disease (PD)” value [1, 5]?
Its value is 53.3%.

And the “PFS of BM− (heregulin−) patients compared with BM+ (heregulin+) patients” value (“PFS … compared with BM+ (heregulin+) patients” below) ([1]; patients treated with erlotinib alone (FIG. 12C))?
The value was “much longer”.

Which “solubility in N,N-dimethylformamide” value ([2]; N,N-dimethylformamide) does the source give for C=C1C[C@@H]2[C@H](CC[C@]3(C)C(=O)CC[C@@H]23)[C@@]2(C)C=CC(=O)C=C12 [exemestane, 6-methylenandrosta-1,4-diene-3,17-dione, reference compound] here?
Its value is “freely soluble”.

What about the solubility in methanol ([2]; methanol) of the same molecule?
Its solubility in methanol is “soluble”.

What about the solubility in water ([2]; water) of the same molecule?
The solubility in water was “practically insoluble”.

What about the objective response rate ([3]; BM+ patients) of the same molecule?
Its objective response rate is 0%.

And the objective response rate ([3]; BM− patients)?
Its objective response rate is 5.9%.

What about the “time within which all treated patients exhibited disease progression” value ([3]; biomarker profile positive tumors (FIG. 10B)) of the same molecule?
Its value is ≤ 20 weeks.

And the “PFS … compared with BM+ (heregulin+) patients” value ([3]; patients treated with exemestane alone (FIG. 10E))?
The value was “much longer”.

And the “Subjects with CTCAE grade 3 or higher TEAE” value [3, 6]?
Its value is 15 ( 25.4).

And the “Subjects with TEAE leading to death” value [3, 6]?
Its value is 1 ( 1.7).

What about the “Subjects with TEAE leading to dose discontinuation” value [3, 6] of the same molecule?
The value was 0.

And the “Subjects with TEAE related to study drug (a)” value [3, 6]?
The value was 32 ( 54.2).

And the “Subjects with at least one AE” value [3, 6]?
Its value is 51 ( 86.4).

What about the “Subjects with at least one TEAE” value [3, 6] of the same molecule?
Its value is 50 ( 84.7).

And the “Subjects with serious TEAE” value [3, 6]?
The value was 11 ( 18.6).

With CC(=O)O[C@H]1C(=O)[C@@]2(C)[C@H]([C@H](OC(=O)c3ccccc3)[C@]3(O)C[C@H](OC(=O)[C@H](O)[C@@H](NC(=O)c4ccccc4)c4ccccc4)C(C)=C1C3(C)C)[C@]1(OC(C)=O)CO[C@@H]1C[C@@H]2O [paclitaxel, Paclitaxel, reference compound] as the molecule, how does the “PFS … compared with BM+ (heregulin+) patients” value ([4]; patients treated with paclitaxel alone (FIG. 8I)) read?
The value was “much longer”.

B1: MM-121: anti-ErbB3 monoclonal antibody having VH and VL sequences as shown in SEQ ID NOs: 1 and 2 (antibody, V domains shown)
VH: EVQLLESGGGLVQPGGSLRLSCAASGFTFSHYVMAWVRQAPGKGLEWVSSISSSGGWTLYADSVKGRFTISRDNSKNTLYLQMNSLRAEDTAVYYCTRGLKMATIFDYWGQGTLVTVSS
VL: QSALTQPASVSGSPGQSITISCTGTSSDVGSYNVVSWYQQHPGKAPKLIIYEVSQRPSGVSNRFSGSKSGNTASLTISGLQTEDEADYYCCSYAGSSIFVIFGGGTKVTVL
Which results are given for B1?
HR (trt:ctrl) ([4]; BM+, subgroup ErbB3 score ≧2): 0.33; HR (trt:ctrl) ([4]; BM+, subgroup ErbB4 score 0): 0.13; HR (trt:ctrl) ([4]; BM−, subgroup ErbB4 score ≧1): 2.20; cumulative HR ([4]; patients with detectable levels of HRG and low levels of ErbB2): < 0.5; PFS versus erlotinib alone ([1]; unselected overall population (FIG. 12A)): overall better outcomes; HR ([3]; Group ErbB2 < 5.1 (HCT), BM negative): 3.00; HR ([3]; Group ErbB2 < 5.1 (HCT), BM population): 0.82; HR ([3]; Group ErbB2 < 5.1 (HCT), BM positive): 0.62; HR ([3]; Group ErbB2 < 5.1 (qIHC) & HRG > −5, BM negative): 1.30; HR ([3]; Group ErbB2 < 5.1 (qIHC) & HRG > −5, BM population): 0.86; HR ([3]; Group ErbB2 < 5.1 (qIHC) & HRG > −5, BM positive): 0.32; HR ([3]; Group ErbB2 < 5.1 (qIHC), BM negative): 3.00; HR ([3]; Group ErbB2 < 5.1 (qIHC), BM population): 1.16; HR ([3]; Group ErbB2 < 5.1 (qIHC), BM positive): 0.84; HR ([3]; Group HRG > −5, BM negative): 0.99; HR ([3]; Group HRG > −5, BM population): 0.68; HR ([3]; Group HRG > −5, BM positive): 0.35; benefit (PFS) from adding MM-121 to exemestane therapy ([3]; biomarker negative patient population (FIG. 10A)): little if any benefit; benefit (PFS) from adding MM-121 to exemestane therapy ([3]; biomarker positive population (FIG. 10B)): dramatic benefit; decrease in risk of death ([3]; full patient population, overall survival, vs standard-of-care arm): 59%; decrease in risk of progression ([3]; heregulin-positive patients, n=34, final analysis): 74%; HR ([3]; no selection, BM population N=115): 0.75
